From PMC7121760

How the values were obtained:
[1] = target: α1Cx43 (connexin 43), full-length, membrane-integrated (UniProt P08050); assay: sucrose gradient velocity sedimentation
[2] = target: β1Cx32 (connexin 32), full-length, membrane-integrated (UniProt P08033); assay: sucrose gradient velocity sedimentation

Row | Substance | stoichiometry N [1] | stoichiometry N [2]
1 | α1Cx43 (connexin 43), full-length, membrane-integrated (from UniProt P08050 1-382) (natural protein) | 6 | 
2 | β1Cx32 (connexin 32), full-length, membrane-integrated (from UniProt P08033 1-283) (natural protein) |  | 6
